2 molecules from patent publication US20140120555A1 (PIERRE FABRE MEDICAMENT, published 2014) can be followed below.

Numbering of substitutions follows the chain as printed. Names and notes keep the numbering of the source.

Assay [1] addresses T1, Recombinant mouse FcγRIII [CD16], Ala31-Thr215 with C-terminal 10-His tag (mouse, UniProt P08508 31-215).
T1 construct: Soluble form bought from R&D Systems; also called m-FcγRIII
T1 sequence: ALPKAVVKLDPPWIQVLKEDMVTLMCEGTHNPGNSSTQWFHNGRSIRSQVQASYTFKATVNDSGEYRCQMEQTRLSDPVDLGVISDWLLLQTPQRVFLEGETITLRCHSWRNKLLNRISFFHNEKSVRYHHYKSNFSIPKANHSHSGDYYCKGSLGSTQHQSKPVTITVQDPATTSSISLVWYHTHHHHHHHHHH
Briefly: SPR (Biacore X), Mab on CM4 chip, m-FcγRIII as analyte, Langmuïr model. As for the experimental part: (§1) 2017 RU of c515H7 Mab were immobilized using the amine coupling kit chemistry on the second flowcell (FC2) of a CM4 sensorchip. The first flowcell (FC1) activated by NHS and EDC mixture and des-activated by ethanolamine served as the reference surface to check and subtract the non specific interaction between the analyte (Fc gamma receptors) and the sensorchip matrix.
(§2) The kinetic experiments were carried out at 25° Celsius at a flow rate of 30 μl/min. The HBS-EP buffer was used either as the running buffer or for the preparation of analyte solutions. The analyte solutions were injected during 90 seconds (association phase) with a 90 seconds delay (dissociation phase). An injection of running buffer as analyte was used as a double reference. All the sensorgrams were corrected by this double reference sensorgram.
(§3) After each injection of the analyte, the sensorchip was regenerated by injection of 20 mM NaOH, 75 mM NaCl solution.
A general note: Surface plasmon resonance follows binding to a sensor surface in real time, without labels.

The target in assay [2] is T2, Recombinant mouse FcγRI [CD64], Gln25-Pro297 with C-terminal 6-His tag (mouse, UniProt P26151 25-297).
T2 construct: range 25-297; Soluble form bought from R&D Systems; also called m-FcγRI
T2 sequence: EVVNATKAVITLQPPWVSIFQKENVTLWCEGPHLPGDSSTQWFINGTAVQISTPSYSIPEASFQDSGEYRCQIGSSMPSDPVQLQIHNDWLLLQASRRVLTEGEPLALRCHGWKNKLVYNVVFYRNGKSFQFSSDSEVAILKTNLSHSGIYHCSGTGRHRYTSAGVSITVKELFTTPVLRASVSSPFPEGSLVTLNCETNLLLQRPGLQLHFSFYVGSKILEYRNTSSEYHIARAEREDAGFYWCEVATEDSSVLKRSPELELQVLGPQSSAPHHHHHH
The experiment in a line: SPR (Biacore X): m-FcγRI injected over c515H7 Mab immobilized on a CM4 sensorchip; heterogeneous ligand model, minor component (19%). As for the experimental part:
as §1, §2, §3

The target of assay [3] is T3, Recombinant human FcγRI [CD64], Gln16-Pro288 with C-terminal 6-His tag (human, UniProt P12314 16-288).
T3 construct: range 16-288; Soluble form bought from R&D Systems; also called h-FcγRI
T3 sequence (P12314 other isoform, or with tags, fused parts or gaps limits assumed): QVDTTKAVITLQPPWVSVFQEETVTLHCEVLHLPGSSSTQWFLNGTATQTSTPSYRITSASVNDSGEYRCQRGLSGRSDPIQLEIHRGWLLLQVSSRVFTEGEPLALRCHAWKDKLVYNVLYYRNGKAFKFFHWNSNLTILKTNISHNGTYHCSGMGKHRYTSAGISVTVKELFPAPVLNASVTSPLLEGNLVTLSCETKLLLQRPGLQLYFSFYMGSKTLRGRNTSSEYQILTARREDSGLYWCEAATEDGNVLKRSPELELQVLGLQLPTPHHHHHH
The experiment in a line: SPR (Biacore X): h-FcγRI injected over c515H7 Mab immobilized on a CM4 sensorchip; heterogeneous ligand model, major component (100%). The method, then: as §1, §2, §3

Assay [4] deals with T3, Recombinant human FcγRI [CD64], …. Briefly: SPR (Biacore X): h-FcγRI injected over c515H7 Mab immobilized on a CM4 sensorchip; heterogeneous ligand model, minor component (0%). As for the experimental part:
as §1, §2, §3

The target of assay [5] is T4, Recombinant human FcγRIIIA variant V [CD16a], Gln17-Gln208 with C-terminal 6-His tag (human, UniProt P08637 17-208).
T4 construct: range 17-208; 'variant V' is given without a position, so no substitution is written; also called h-FcγRIIIA
T4 sequence (P08637 other isoform, or with tags, fused parts or gaps mutant limits assumed, form in doubt): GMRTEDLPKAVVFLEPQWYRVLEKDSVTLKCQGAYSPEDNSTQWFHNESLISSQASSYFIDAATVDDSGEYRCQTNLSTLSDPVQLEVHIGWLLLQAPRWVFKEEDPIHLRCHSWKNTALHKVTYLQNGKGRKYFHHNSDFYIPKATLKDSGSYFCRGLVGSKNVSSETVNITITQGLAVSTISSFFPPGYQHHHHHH
The experiment in a line: SPR (Biacore X): h-FcγRIIIA injected over c515H7 Mab immobilized on a CM4 sensorchip; heterogeneous ligand model, minor component (19%). As for the experimental part:
as §1, §2, §3

Assay [6] addresses T3, Recombinant human FcγRI [CD64], …. The experiment in a line: SPR (Biacore X): h-FcγRI injected over hz515H7VH1D76NVL2 Mab immobilized on a CM4 sensorchip; heterogeneous ligand model, major component (99%). The method, then: (§4) The experiments were carried out using a Biacore X device. The soluble forms of the four Fc […]gamma receptors used in this study were purchased from R&D Systems: […]

In assay [7] the target is T4, Recombinant human FcγRIIIA variant V …. The experiment in a line: SPR (Biacore X): h-FcγRIIIA injected over hz515H7VH1D76NVL2 Mab immobilized on a CM4 sensorchip; Langmuir model. As for the experimental part: 1964 RU of hz515H7VH1D76NVL2 Mab were immobilized using the amine coupling kit chemistry on the second flowcell (FC2) of a CM4 sensorchip. The first flowcell (FC1) activated by NHS and EDC mixture and des-activated by ethanolamine served as the reference surface to check and subtract the non specific interaction between the analyte (Fc gamma receptors) and the sensorchip matrix.
as §2
After each injection of the analyte, the sensorchip was regenerated by injection of either 20 mM NaOH solution after h-FcγRI and m-FcγRIII or 10 mM NaOH after h-FcγRIIIA and m-FcγRI.

For assay [8], the target named is T3, Recombinant human FcγRI [CD64], …. The experiment in a line: SPR (Biacore X): h-FcγRI injected over hz515H7VH1D76NVL2 Mab immobilized on a CM4 sensorchip; heterogeneous ligand model, minor component (1%). As for the experimental part: as §4
Assay [9] shares this target. The experiment in a line: SPR (Biacore X): h-FcγRI injected over hz515H7VH1D76NVL2 Mab immobilized on a CM4 sensorchip; Langmuir model. The method, then:
as §4

B1: chimeric antibody c515H7 (antibody, human IgG1, kappa)
heavy: not shown
light: DIVMSQSPSSLAVSAGEKVTMSCKSSQSLFNSRTRKNYLAWYQQKPGQSPKLLIYWASARDSGVPARFTGSGSETYFTLTISRVQAEDLAVYYCMQSFNLRTFGGGTKLEIKRTVAAPSVFIFPPSDEQLKSGTASVVCLLNNFYPREAKVQWKVDNALQSGNSQESVTEQDSKDSTYSLSSTLTLSKADYEKHKVYACEVTHQGLSSPVTKSFNRGEC
notes: Human IgG1/kappa constant domains; also called c515H7 Mab; chimeric 515H7
Regarding B1, the Kd was about 20 nM in [1]; 34.6 nM in assay [2]; 1.22 nM in [3]; 0.06 nM in [4]; 34.7 nM in [5]. In addition, the koff in assay [2] is 0.0387 s⁻¹; in assay [3] it was 0.000599 s⁻¹; in assay [4], 7.3e-05 s⁻¹; in assay [5], 0.0124 s⁻¹. Besides, the kon in assay [2] turned out to be 1.12e+06 M⁻¹ s⁻¹; in [3], 493000 M⁻¹ s⁻¹; in assay [4] it was 1.14e+06 M⁻¹ s⁻¹; in assay [5], 357000 M⁻¹ s⁻¹.

B2: humanized antibody Hz515H7 VH1 D76N VL2 (antibody, human IgG1, kappa)
heavy: not shown
light: B1 light with S5T, A15L, K18R, V19A, G105Q, L109V
notes: IgG1/kappa; also called hz515H7VL2; hz515H7-1
Consider B2, for which the Kd in assay [6] amounted to 0.69 nM; in [7], 75.2 nM; in [8] it was 0.28 nM; in assay [9], 0.93 nM. For the same molecule, the koff came to 0.0004 s⁻¹ in assay [6], 0.0351 s⁻¹ in [7], 2e-05 s⁻¹ in assay [8] and 0.00054 s⁻¹ in assay [9]. Further, the kon in assay [6] is 579000 M⁻¹ s⁻¹; in assay [7], 467000 M⁻¹ s⁻¹; in assay [8], 72000 M⁻¹ s⁻¹; in assay [9] it was 578000 M⁻¹ s⁻¹.

The Kd is the equilibrium constant for the complex coming apart. Usually koff stands for the first-order rate constant of dissociation. Usually kon stands for a measure of how fast the partners come together.
